The target in this experiment is T1, Vps11 (CORVET and HOPS core subunit) (yeast, UniProt P12868 1-1029).
T1 construct: Vps11, yeast, core subunit shared by CORVET and HOPS
T1 sequence: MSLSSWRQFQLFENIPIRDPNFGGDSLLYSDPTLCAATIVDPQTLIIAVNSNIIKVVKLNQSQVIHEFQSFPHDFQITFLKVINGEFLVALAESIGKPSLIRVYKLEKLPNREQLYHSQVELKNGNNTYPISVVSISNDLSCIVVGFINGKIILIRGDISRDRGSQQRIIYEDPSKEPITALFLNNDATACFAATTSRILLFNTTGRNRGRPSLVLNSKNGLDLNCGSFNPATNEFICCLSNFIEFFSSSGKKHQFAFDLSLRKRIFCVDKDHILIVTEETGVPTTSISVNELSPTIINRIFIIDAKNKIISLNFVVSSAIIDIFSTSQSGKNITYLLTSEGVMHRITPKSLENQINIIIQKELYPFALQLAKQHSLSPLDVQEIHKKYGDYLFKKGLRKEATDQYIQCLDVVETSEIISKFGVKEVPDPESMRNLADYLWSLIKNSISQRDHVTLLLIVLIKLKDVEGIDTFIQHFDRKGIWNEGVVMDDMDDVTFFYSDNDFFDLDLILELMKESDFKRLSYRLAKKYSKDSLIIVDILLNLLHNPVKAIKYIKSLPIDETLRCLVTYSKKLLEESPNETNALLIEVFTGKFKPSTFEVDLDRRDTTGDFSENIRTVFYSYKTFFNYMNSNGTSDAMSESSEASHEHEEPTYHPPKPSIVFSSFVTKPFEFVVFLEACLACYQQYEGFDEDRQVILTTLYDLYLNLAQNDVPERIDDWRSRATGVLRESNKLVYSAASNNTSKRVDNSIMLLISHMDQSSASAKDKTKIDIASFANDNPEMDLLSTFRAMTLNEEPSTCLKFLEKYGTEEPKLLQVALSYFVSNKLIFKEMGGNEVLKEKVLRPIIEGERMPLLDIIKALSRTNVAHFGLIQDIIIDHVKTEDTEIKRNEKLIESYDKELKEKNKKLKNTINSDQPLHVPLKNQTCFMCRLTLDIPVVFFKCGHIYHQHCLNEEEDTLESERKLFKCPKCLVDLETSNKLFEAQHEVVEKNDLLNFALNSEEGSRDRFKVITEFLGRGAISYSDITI
Nature of the experiment: cryo-EM structure; single-particle cryo-EM of the hexameric CORVET co-expressed in yeast and purified by 3xFLAG on Vps8 and SEC; about 0.8 mg/ml; consensus map 4.6 Å, local refinements to 3.8 Å. Particulars: both partners purified.

B1: Vps3 (CORVET subunit) (natural protein, yeast)
chain: MVKKKTNNDKGKEVKENEGKLDIDSESSPHERENDKKKTEDDSLRATESEETNTHNANPNETVRADKFSQEESRPIEDSPHTDKNTAQESCQPSSAEDNVINTDITSLNEKTSTNDEQEKGLPLKISEGPFTISTLLDNVPSDLIYTCCEAYENHIFLGTTTGDLLHYFELERGNYMLVSQTKFDAESNSKIDKILLLPKVEGALILCDNELVLFILPEFAPRPNTTRLKGISDVVICNFSRSSKAYRIYAFHAEGVRLLKISADSLVLTKAFNFKLIDKACAHEETLMVSKLNSYELINLKSSQVIPLFRISETDEDLEPIITSFNEQSEFLVCSGGGSYDSGAMALVVNHHGDIIKGTIVLKNYPRNVIVEFPYIIAESAFQSVDIYSALPSEKSQLLQSITTSGSDLKISKSDNVFTNTNNSEEFKEKIFNKLRLEPLTHSDNKFRIERERAFVEESYEEKTSLIVYNNLGIHLLVPTPMVLRFTSCEESEIDNIEDQLKKLAKKDLTKFEHIEAKYLMSLLLFLMTLHYDHIEDEVMKKWCDFSDKVDIRILFYMFGWKVYSEIWCFHGLINIVERLKSLKLTNKCENILKMLLMMKNELKKKNKTGLLTNDFDDIMKTIDITLFKLRLEKKETITVDMFERESYDEIIREINLHDDKLPRIELLIEIYKEKGEYLKALNLLREAGDYISLVSFIEENLKKLPEDYIKERIADDLLLTLKQGDENTEECAIKKVLKILDMACINKNDFLNKIPAEETSLKVSFIEQLGVQNSNDSKFLFNYYLAKLREIINQSNIWSILGDFIKEYKDDFAYDKTDITNFIHIKLKHSLQCENFSKYYEKCENLKSENEKDDEFINFTFDEISKIDKEHILTLLFFPNELTNWVSSEELLKIYLSFNDFRSVEKYIGKQNLVAVMKQYLDISSLNYSVELVTNLLQRNFELLDDTDIQLKILETIPSVFPVQTISELLLKVLIKYQEKKEESNLRKCLLKNQISISDELSRNFDSQG
notes: UniProt P23643 printed for its AlphaFold model; N-terminal half (with the β-propeller) was removed from the deposited model; source: yeast lysate in the Vps8-ALFA pull-downs
For B1, the binding result is recorded as “binds”.

The values are drawn from paper PMC11187117, “Structure of the endosomal CORVET tethering complex” (Nature Communications, 2024).
